Columns and labels:
Experiment in all cases: detection of glycoproteins by ELISA with biotin-labeled lectin
Type in all cases: binding
[1] = test system: Immune-globulin G (human); settings: (3) Immune-globulin G (human), N-linked glycan having α1→6 L-fucose; thyroglobulin value = 100%
Description: (§1) PTL of Example 1, SRL of Example 2, AAL of Comparison Example 1, AOL of Comparison Example 2, and LCA of Comparison Example 3 that were biotin-labeled were used to the detection of glycoproteins by the enzyme-linked immunosorbent assay (ELISA).
(§2) The glycoprotein and albumin as protein not including a sugar chain as a control were dissolved in 0.1 M carbonic acid buffer solution (pH 9.5) at 1 mg/ml. Then, the resultant solution was added to a microtiter plate (Nunc 439454) and was incubated at 4 degrees C. overnight. Then, the resultant solution was cleaned by 0.05% Tween/PBS three times. Thereafter, 1% BSA/PBS was added to wells and the solution was incubated at 37 degrees C. for one hour. Then, after the solution was cleaned by 0.05% Tween/PBS three times, biotin labeled-lectin appropriately diluted by 1% BSA/0.05% Tween/PBS was added to the wells and the solution was incubated at 37 degrees C. for one hour. After the solution was cleaned by 0.05% Tween/PBS three times, HRP labeled streptavidin solution diluted by 1% BSA/0.05% Tween/PBS was added to wells and the solution was incubated at 37 degrees C. for 30 minutes. After the solution was cleaned by 0.05% Tween/PBS three times, TMB Peroxidase substrate system (KPL) was added and the resultant solution was incubated at a room temperature for 10 minutes while light was being blocked.
(§3) The reaction was stopped by 1 M phosphoric acid. Then, a microplate reader (MPR-A4i, TOSOH CORPORATION) was used to measure the absorbance at 450 nm. Based on this value, reaction value ([absorbance at 450 nm of a well for which glycoprotein was solid-phased to the plate and reacted]−[absorbance at 450 nm of a well for which glycoprotein was not solid-phased to the plate and reacted] was calculated. Next, for each lectin, the interaction strength (relative value) to each glycoprotein was calculated based on an assumption that the glycoprotein (thyroglobulin) value was 100%. The calculation result is shown in Table 9 and FIG. 19 to FIG. 23.

[2] = test system: α1-acidic glycoprotein (human); settings: (5) α1-acidic glycoprotein (human), N-linked glycan having α1→3 L-fucose; thyroglobulin value = 100%
Description: as §1, §2, §3

[3] = biological target: T1, Invertase (yeast) (Saccharomyces cerevisiae, UniProt P00724); settings: (6) Invertase (yeast), High mannose-type glycan; thyroglobulin value = 100%
T1 sequence (P00724 20-532): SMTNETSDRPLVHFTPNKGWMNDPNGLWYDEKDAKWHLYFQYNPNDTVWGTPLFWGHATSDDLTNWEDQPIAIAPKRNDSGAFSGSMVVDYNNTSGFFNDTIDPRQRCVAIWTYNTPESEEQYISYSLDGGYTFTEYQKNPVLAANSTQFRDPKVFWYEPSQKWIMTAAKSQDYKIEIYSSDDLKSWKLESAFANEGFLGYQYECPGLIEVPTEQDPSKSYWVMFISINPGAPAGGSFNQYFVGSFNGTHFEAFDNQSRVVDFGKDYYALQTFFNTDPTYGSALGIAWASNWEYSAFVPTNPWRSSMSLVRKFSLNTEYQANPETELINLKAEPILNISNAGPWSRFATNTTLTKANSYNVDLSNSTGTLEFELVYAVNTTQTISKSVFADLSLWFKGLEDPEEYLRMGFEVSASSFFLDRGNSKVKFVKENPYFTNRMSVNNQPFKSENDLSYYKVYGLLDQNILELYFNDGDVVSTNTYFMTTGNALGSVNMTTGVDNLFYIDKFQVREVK
Description: as §1, §2, §3

[4] = biological target: Transferrin (human) (Homo sapiens, UniProt P02787); settings: (4) Transferrin (human), N-linked glycan not including α1→6 L-fucose; thyroglobulin value = 100%
Description: as §1, §2, §3

[5] = biological target: Lactoferrin (human) (Homo sapiens, UniProt P02788); settings: (2) Lactoferrin (human), N-linked glycan chain having α1→6 L-fucose; thyroglobulin value = 100%
Description: as §1, §2, §3

[6] = test system: Mucin (pig); settings: (7) Mucin (pig), O-linked glycan including L-fucose; thyroglobulin value = 100%
Description: as §1, §2, §3

[7] = biological target: Thyroglobulin (pig) (Sus scrofa, UniProt F1RRV3); settings: (1) Thyroglobulin (pig), N-linked glycan having α1→6 L-fucose; thyroglobulin value = 100%
Description: as §1, §2, §3

[8] = biological target: Blood serum albumin (bovine) (Bos taurus, UniProt P02769); settings: (0) Blood serum albumin (bovine), No sugar chain; thyroglobulin value = 100%
Description: as §1, §2, §3

[9] = test system: Mucin (bovine); settings: (8) Mucin (bovine), O-linked glycan including L-fucose; thyroglobulin value = 100%
Description: as §1, §2, §3

Sequence of Thyroglobulin (pig) (F1RRV3 20-2692): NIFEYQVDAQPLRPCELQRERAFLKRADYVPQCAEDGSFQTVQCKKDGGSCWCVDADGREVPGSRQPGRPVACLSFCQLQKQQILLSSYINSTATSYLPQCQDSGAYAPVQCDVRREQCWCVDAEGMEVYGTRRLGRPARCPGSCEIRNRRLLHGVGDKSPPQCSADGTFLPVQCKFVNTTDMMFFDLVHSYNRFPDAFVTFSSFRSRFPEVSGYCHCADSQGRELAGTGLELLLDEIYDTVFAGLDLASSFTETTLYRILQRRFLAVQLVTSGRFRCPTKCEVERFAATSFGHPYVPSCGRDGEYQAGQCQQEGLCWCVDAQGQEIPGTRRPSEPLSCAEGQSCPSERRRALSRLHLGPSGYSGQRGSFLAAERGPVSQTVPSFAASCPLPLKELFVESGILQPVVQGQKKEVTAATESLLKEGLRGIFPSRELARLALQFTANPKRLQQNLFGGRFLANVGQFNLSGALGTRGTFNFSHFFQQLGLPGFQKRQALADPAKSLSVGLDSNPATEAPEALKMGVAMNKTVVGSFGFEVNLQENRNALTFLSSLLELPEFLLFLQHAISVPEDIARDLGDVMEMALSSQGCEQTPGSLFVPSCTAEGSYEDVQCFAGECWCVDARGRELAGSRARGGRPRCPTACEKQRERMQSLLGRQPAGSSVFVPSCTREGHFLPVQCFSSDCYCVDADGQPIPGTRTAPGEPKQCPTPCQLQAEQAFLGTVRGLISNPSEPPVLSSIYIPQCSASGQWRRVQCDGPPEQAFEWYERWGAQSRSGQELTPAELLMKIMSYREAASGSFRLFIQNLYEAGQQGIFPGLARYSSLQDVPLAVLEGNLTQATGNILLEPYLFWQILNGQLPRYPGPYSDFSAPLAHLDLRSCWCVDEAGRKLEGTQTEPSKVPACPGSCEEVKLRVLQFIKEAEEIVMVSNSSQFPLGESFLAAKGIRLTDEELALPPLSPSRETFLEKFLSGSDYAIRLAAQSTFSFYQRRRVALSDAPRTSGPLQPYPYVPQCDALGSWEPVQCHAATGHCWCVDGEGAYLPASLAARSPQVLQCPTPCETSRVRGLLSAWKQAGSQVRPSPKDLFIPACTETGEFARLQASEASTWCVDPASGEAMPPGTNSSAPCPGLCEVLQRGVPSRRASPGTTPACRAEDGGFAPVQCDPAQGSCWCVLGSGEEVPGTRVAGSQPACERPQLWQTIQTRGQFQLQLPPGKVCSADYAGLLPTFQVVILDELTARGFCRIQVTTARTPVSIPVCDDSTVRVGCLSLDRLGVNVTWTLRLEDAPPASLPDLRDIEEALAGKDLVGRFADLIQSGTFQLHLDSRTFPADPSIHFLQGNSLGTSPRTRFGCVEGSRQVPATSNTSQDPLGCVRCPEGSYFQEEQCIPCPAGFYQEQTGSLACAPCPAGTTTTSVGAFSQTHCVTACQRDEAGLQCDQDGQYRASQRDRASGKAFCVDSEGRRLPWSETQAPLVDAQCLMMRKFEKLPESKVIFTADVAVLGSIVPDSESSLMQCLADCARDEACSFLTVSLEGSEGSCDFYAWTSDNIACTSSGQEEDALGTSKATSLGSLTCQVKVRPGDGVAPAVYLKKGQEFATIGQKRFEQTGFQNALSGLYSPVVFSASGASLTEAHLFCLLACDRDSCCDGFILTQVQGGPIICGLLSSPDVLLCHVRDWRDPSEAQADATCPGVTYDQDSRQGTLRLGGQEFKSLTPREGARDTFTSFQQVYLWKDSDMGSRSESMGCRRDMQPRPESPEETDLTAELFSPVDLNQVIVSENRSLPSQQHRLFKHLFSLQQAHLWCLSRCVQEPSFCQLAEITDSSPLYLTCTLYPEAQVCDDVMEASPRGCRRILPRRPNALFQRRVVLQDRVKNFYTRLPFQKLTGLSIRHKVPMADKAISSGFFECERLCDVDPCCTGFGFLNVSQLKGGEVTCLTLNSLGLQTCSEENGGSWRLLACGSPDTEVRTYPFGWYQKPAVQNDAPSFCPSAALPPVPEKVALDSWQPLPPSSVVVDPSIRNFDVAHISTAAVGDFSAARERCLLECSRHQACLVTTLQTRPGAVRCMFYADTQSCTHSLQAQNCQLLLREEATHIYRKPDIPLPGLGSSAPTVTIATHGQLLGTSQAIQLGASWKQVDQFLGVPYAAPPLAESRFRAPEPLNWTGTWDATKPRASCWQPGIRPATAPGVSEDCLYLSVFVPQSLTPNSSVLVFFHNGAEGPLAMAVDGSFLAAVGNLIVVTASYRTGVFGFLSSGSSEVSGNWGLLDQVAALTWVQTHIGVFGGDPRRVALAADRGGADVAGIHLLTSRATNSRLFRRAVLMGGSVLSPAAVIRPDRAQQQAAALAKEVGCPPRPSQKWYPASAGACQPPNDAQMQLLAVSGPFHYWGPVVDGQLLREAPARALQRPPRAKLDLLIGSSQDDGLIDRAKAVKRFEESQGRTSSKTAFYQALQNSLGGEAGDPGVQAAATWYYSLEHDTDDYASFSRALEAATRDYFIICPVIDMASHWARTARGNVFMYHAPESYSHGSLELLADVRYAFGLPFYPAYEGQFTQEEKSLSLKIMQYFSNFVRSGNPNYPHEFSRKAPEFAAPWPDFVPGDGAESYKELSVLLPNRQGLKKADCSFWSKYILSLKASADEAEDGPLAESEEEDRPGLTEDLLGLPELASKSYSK
Sequence of Transferrin (human) (P02787 20-698): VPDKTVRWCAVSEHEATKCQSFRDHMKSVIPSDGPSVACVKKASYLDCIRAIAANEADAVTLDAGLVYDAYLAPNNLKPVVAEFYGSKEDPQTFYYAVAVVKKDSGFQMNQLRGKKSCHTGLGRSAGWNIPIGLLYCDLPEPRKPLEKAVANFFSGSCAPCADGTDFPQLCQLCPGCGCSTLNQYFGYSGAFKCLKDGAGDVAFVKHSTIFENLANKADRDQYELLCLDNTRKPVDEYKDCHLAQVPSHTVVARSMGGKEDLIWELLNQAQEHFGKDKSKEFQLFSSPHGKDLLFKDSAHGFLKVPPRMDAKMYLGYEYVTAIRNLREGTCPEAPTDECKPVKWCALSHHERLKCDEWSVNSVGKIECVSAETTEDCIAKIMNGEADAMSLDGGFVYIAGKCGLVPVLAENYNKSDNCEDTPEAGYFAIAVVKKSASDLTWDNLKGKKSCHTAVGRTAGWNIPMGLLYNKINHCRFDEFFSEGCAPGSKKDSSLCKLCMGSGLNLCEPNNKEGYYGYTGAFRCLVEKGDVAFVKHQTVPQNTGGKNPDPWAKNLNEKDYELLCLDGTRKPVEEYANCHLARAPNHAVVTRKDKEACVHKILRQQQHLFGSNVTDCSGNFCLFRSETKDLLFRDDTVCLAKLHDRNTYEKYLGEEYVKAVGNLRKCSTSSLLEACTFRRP
Sequence of Blood serum albumin (bovine) (P02769 25-607): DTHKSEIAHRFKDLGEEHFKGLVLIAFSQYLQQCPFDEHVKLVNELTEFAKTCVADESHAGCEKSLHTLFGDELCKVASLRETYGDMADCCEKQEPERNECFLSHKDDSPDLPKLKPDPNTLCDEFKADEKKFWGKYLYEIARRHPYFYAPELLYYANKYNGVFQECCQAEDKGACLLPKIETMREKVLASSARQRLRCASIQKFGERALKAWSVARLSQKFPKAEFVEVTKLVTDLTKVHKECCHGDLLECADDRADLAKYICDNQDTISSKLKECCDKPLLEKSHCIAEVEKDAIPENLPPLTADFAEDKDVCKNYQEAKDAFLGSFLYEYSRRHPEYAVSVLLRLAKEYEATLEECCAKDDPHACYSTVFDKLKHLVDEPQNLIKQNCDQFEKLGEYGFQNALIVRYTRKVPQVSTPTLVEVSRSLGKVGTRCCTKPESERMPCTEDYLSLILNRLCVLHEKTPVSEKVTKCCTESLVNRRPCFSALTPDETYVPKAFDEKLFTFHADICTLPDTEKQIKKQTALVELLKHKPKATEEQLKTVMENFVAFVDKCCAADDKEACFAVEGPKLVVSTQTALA
Sequence of Lactoferrin (human) (P02788 20-710): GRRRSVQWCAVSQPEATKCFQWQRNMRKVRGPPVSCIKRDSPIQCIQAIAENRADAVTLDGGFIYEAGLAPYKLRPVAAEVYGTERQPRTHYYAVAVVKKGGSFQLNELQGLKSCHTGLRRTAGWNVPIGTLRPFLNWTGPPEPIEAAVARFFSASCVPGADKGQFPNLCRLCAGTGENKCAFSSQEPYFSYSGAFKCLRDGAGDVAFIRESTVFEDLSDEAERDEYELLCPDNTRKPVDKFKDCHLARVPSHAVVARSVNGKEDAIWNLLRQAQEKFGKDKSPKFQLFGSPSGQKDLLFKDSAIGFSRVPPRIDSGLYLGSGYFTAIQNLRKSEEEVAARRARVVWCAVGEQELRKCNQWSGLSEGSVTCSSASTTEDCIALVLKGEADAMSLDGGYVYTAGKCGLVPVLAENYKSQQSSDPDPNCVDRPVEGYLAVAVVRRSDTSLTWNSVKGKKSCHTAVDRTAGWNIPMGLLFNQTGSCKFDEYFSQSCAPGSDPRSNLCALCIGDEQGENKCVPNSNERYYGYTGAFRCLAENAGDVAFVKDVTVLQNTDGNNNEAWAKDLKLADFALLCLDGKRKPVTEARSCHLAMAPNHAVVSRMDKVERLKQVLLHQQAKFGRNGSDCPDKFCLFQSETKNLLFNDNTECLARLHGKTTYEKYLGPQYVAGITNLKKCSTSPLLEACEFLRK

Molecule: Aspergillus oryzae lectin [AOL, reference compound]
- interaction strength (relative value) by ELISA [1]: Δ (Relative values of 50 to 10)
- interaction strength (relative value) by ELISA [2]: Δ (Relative values of 50 to 10)
- interaction strength (relative value) by ELISA [3]: X (Relative values of 10 or less)
- interaction strength (relative value) by ELISA [4]: X (Relative values of 10 or less)
- interaction strength (relative value) by ELISA [5]: ◯ (Relative values of 80 to 50)
- interaction strength (relative value) by ELISA [6]: ⊚ (Relative values of 120 to 80)
- interaction strength (relative value) by ELISA [7]: ⊚ (Relative values of 120 to 80)
- interaction strength (relative value) by ELISA [8]: X (Relative values of 10 or less)
- interaction strength (relative value) by ELISA [9]: ⊚ (Relative values of 120 to 80)

Molecule: Pholiota terrestris lectin [PTL, novel L-fucose α1→6 specific lectin purified from the mushroom Pholiota terrestris]
- interaction strength (relative value) by ELISA [1]: ⊚ (Relative values of 120 to 80)
- interaction strength (relative value) by ELISA [2]: X (Relative values of 10 or less)
- interaction strength (relative value) by ELISA [3]: X (Relative values of 10 or less)
- interaction strength (relative value) by ELISA [4]: X (Relative values of 10 or less)
- interaction strength (relative value) by ELISA [5]: ⊚ (Relative values of 120 to 80)
- interaction strength (relative value) by ELISA [6]: X (Relative values of 10 or less)
- interaction strength (relative value) by ELISA [7]: ⊚ (Relative values of 120 to 80)
- interaction strength (relative value) by ELISA [8]: X (Relative values of 10 or less)
- interaction strength (relative value) by ELISA [9]: X (Relative values of 10 or less)

Molecule: Stropharia rugosoannulata lectin [SRL, novel L-fucose α1→6 specific lectin purified from the mushroom Stropharia rugosoannulata]
- interaction strength (relative value) by ELISA [1]: ◯ (Relative values of 80 to 50)
- interaction strength (relative value) by ELISA [2]: X (Relative values of 10 or less)
- interaction strength (relative value) by ELISA [3]: X (Relative values of 10 or less)
- interaction strength (relative value) by ELISA [4]: X (Relative values of 10 or less)
- interaction strength (relative value) by ELISA [5]: ◯ (Relative values of 80 to 50)
- interaction strength (relative value) by ELISA [6]: X (Relative values of 10 or less)
- interaction strength (relative value) by ELISA [7]: ⊚ (Relative values of 120 to 80)
- interaction strength (relative value) by ELISA [8]: X (Relative values of 10 or less)
- interaction strength (relative value) by ELISA [9]: X (Relative values of 10 or less)

B1: Lens culinaris agglutinin (protein)
chain 1: TETTSFSITKFSPDQKNLIFQGDGYTTKGKLTLTKAVKSTVGRALYSTPIHIWDRDTGNVANFVTSFTFVIDAPSSYNVADEFTFFIAPVDTKPQTGGGYLGVFNSKEYDKTSQTVAVEFDTFYNAAWDPSNKERHIGIDVNSIKSVNTKSWNLQNGERANVVIAFNAATNVLTVTLTYP
chain 2: VTSYTLNEVVPLKDVVPEWVRIGFSATTGAEFAAHEVHSWSFHSELGGTSSS
- interaction strength (relative value) by ELISA [1]: ◯ (Relative values of 80 to 50)
- interaction strength (relative value) by ELISA [2]: X (Relative values of 10 or less)
- interaction strength (relative value) by ELISA [3]: X (Relative values of 10 or less)
- interaction strength (relative value) by ELISA [4]: X (Relative values of 10 or less)
- interaction strength (relative value) by ELISA [5]: ◯ (Relative values of 80 to 50)
- interaction strength (relative value) by ELISA [6]: X (Relative values of 10 or less)
- interaction strength (relative value) by ELISA [7]: ⊚ (Relative values of 120 to 80)
- interaction strength (relative value) by ELISA [8]: X (Relative values of 10 or less)
- interaction strength (relative value) by ELISA [9]: X (Relative values of 10 or less)

B2: Aleuria aurantia lectin (protein)
chain: PTEFLYTSKIAAISWAATGGRQQRVYFQDLNGKIREAQRGGDNPWTGGSSQNVIGEAKLFSPLAAVTWKSAQGIQIRVYCVNKDNILSEFVYDGSKWITGQLGSVGVKVGSNSKLAALQWGGSESAPPNIRVYYQKSNGSGSSIHEYVWSGKWTAGASFGSTVPGTGIGATAIGPGRLRIYYQATDNKIREHCWDSNSWYVGGFSASASAGVSIAAISWGSTPNIRVYWQKGREELYEAAYGGSWNTPGQIKDASRPTPSLPDTFIAANSSGNIDISVFFQASGVSLQQWQWISGKGWSIGAVVPTGTPAGW
- interaction strength (relative value) by ELISA [1]: Δ (Relative values of 50 to 10)
- interaction strength (relative value) by ELISA [2]: Δ (Relative values of 50 to 10)
- interaction strength (relative value) by ELISA [3]: X (Relative values of 10 or less)
- interaction strength (relative value) by ELISA [4]: X (Relative values of 10 or less)
- interaction strength (relative value) by ELISA [5]: ◯ (Relative values of 80 to 50)
- interaction strength (relative value) by ELISA [6]: ⊚ (Relative values of 120 to 80)
- interaction strength (relative value) by ELISA [7]: ⊚ (Relative values of 120 to 80)
- interaction strength (relative value) by ELISA [8]: X (Relative values of 10 or less)
- interaction strength (relative value) by ELISA [9]: ⊚ (Relative values of 120 to 80)

— US8461305B2, “L-fucose α1→6 specific lectin” (J-Oil Mills, Inc., priority 2008, dated 2013)
